Experimental data from publication PMC4838342 (Nucleic Acids Research, 2015).

B1: N-300: sNASP truncated at residue 300 (protein, UniProt P49321 1-300, looked up, fragment)
chain: MAMESTATAAVAAELVSADKIEDVPAPSTSADKVESLDVDSEAKKLLGLGQKHLVMGDIPAAVNAFQEAASLLGKKYGETANECGEAFFFYGKSLLELARMENGVLGNALEGVHVEEEEGEKTEDESLVENNDNIDEEAREELREQVYDAMGEKEEAKKTEDKSLAKPETDKEQDSEMEKGGREDMDISKSAEEPQEKVDLTLDWLTETSEEAKGGAAPEGPNEAEVTSGKPEQEVPDAEEEKSVSGTDVQEECREKGGQEKQGEVIVSIEEKPKEVSEEQPVVTLEKQGTAVEVEAESL
modifications: sNASP
B2: N-330: sNASP truncated at residue 330 (protein, UniProt P49321 1-330, looked up, fragment)
chain: MAMESTATAAVAAELVSADKIEDVPAPSTSADKVESLDVDSEAKKLLGLGQKHLVMGDIPAAVNAFQEAASLLGKKYGETANECGEAFFFYGKSLLELARMENGVLGNALEGVHVEEEEGEKTEDESLVENNDNIDEEAREELREQVYDAMGEKEEAKKTEDKSLAKPETDKEQDSEMEKGGREDMDISKSAEEPQEKVDLTLDWLTETSEEAKGGAAPEGPNEAEVTSGKPEQEVPDAEEEKSVSGTDVQEECREKGGQEKQGEVIVSIEEKPKEVSEEQPVVTLEKQGTAVEVEAESLDPTVKPVDVGGDEPEEKVVTSENEAGKAVL
modifications: sNASP

Test system: MBP H3 116–135
Assay: Pulldown of MBP H3 116–135 by (His)6-sNASP truncations
Format: binding
Conditions: (His)6-tagged sNASP truncations, SDS-PAGE, Coomassie, western blotting for MBP
Experimental: Protein was eluted in the same buffer with 250 mM imidazole, but without protease inhibitors. The (His)6 tag was cleaved overnight by TEV protease, whilst concomitantly dialysing to 100 mM sodium chloride, 20 mM Tris–HCl pH 8.0, 1 mM EDTA and 5 mM dithiothreitol. Cleaved protein was further purified by ion-exchange using a ResourceQ column (GE Healthcare) before gel filtration chromatography in 200 mM sodium chloride, 20 mM Hepes-KOH pH 7.6 and 1 mM EDTA using a 26/60 Superdex 200 column (GE Healthcare). The purified protein was concentrated and stored in aliquots at −80°C. Homologues, truncations and point mutants of sNASP were expressed and purified using the same method. MBP-H3 peptide fusions were expressed in bacteria and used as whole cell extracts (epitope mapping) or purified over a Dextrin Sepharose column (GE Healthcare) in one-step purification in 0.5 M sodium chloride, 20 mM Hepes-KOH pH 7.6, 1 mM EDTA and 5 mM dithiothreitol. Concentrated protein was dialysed against 200 mM sodium chloride, 20 mM Hepes-KOH, 1 mM EDTA and 5 mM dithiothreitol and stored in aliquots at −80°C.
Mutations were made in the MBP H3 116–135 construct using a mixture of site-direct mutagenesis and oligo ligation. Whole cell extracts were prepared from bacteria and used as inputs for the pulldown experiments with (His)6-sNASP pre-bound to Nickel-NTA beads (GE Healthcare).
A BsNASP mutantsH3 peptide […]
200 A260 M Elution volume (mL) […]
construct used for NMR (A) Various truncations of (His)6-sNASP were tested for their ability to pull down MBP -H3 116-135 ( W T ) or a scrambled peptide (Sc). […]
separated by SDS-PAGE and stained with Coomassie. […]
western blotting for MBP was also carried out. (B) Domain diagrams of truncations shown in A with TPR motifs in green, the acidic loop region in yellow and the predicted capping region in grey. A summar y of the interaction with MBP-H3 116-135 is shown on the right hand side.
Binding Protein; CR, capping region; TPR, tetratricopeptide repeat; cTPR, contiguous TPR; mcTPR, minimum contiguous […]

| Molecule | ability to bind / pull down MBP H3 116–135 | ability to bind / pull down MBP H3 116–135 (listed as Truncating sNASP close to TPR4 at residue 300) | ability to bind / pull down MBP H3 116–135 (listed as truncation at residue 330) |
| --- | --- | --- | --- |
| B1 | incapable of binding H3 | loss of interaction | – |
| B2 | binds the H3 C-terminal peptide with affinity similar to the full length | – | retained the interaction |
